Test results as given in paper PMC9482650, “Quantitative fragmentomics allow affinity mapping of interactomes” (Nature Communications, 2022).

T1: APBA3_1, O96018
T1 sequence (O96018 389-490, limits assumed, looked up): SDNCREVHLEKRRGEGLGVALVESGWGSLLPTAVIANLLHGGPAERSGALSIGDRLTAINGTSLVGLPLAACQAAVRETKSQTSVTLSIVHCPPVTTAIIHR

T2: MPDZ_11, O75970
T2 sequence (O75970 1720-1817, limits assumed, looked up): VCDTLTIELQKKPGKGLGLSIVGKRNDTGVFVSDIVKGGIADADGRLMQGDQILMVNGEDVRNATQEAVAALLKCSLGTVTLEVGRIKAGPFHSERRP

T3: MPDZ_3, O75970
T3 sequence (O75970 372-473, limits assumed, looked up): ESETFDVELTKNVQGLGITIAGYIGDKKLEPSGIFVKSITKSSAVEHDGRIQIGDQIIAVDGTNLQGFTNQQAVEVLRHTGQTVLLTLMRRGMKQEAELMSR

T4: MPP5, Q8N3R9
T4 sequence (Q8N3R9 251-346, limits assumed, looked up): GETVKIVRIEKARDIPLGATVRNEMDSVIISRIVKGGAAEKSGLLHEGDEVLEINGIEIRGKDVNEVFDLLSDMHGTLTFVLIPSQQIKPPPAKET

T5: PARD6G, Q9BYG4
T5 sequence (Q9BYG4 153-261, limits assumed, looked up): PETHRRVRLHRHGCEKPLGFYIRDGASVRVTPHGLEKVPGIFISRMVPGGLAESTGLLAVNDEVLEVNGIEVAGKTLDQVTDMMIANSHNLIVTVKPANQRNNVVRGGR

T6: PDZD2_6, O15018
T6 sequence (O15018 2745-2839, limits assumed, looked up): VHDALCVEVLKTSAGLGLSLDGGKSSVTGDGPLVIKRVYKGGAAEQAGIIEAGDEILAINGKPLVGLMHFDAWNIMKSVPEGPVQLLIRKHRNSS

T7: PDZD7_2, Q9H5P4
T7 sequence (Q9H5P4 205-303, limits assumed, looked up): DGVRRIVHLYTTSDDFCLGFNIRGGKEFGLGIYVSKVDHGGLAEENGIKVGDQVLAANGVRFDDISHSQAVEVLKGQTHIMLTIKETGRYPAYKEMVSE

T8: PTPN13_4, Q12923
T8 sequence (Q12923 1783-1878, limits assumed, looked up): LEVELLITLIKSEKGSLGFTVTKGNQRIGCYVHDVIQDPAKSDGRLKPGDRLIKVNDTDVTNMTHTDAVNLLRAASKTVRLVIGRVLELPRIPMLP

T9: PTPN13_5, Q12923
T9 sequence (Q12923 1877-1975, limits assumed, looked up): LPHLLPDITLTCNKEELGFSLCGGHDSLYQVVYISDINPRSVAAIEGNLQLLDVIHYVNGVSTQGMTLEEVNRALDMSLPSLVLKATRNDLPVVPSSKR

T10: SHROOM3, Q8TF72
T10 sequence (Q8TF72 20-120, limits assumed, looked up): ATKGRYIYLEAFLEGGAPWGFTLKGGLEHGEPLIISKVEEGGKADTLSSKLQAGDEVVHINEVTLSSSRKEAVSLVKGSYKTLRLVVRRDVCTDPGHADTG

T11: USH1C_1, Q9Y6N9
T11 sequence (Q9Y6N9 82-179, limits assumed, looked up): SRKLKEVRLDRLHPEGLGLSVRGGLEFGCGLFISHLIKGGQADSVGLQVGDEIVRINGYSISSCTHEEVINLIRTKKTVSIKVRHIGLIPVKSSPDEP


Legend:
Experiment in all cases: holdup assay
Parameters in all cases: key: below the threshold = too weak to quantify, mostly under pKd 3.1 to 4
APBA3_1, O96018 = target: T1, APBA3_1, O96018; conditions: plain residues with an end cap or a label only (N-terminal biotin on a linker: ttds)
GIPC2, Q8TF65 = target: GIPC2, Q8TF65
Sequence of GIPC2, Q8TF65 (Q8TF65 112-203): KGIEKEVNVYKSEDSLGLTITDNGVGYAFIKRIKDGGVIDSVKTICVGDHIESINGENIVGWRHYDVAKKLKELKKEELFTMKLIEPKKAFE

DLG2_1, Q15700 = conditions: plain residues with an end cap or a label only (N-terminal biotin on a linker: ttds)
DLG5_2, Q8TDM6 = conditions: plain residues with an end cap or a label only (N-terminal biotin on a linker: ttds)
Sequence of DLG5_2, Q8TDM6 (Q8TDM6 714-800): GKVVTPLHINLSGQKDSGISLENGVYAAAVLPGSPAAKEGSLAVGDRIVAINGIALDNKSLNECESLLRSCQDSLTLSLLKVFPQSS

DVL2, O14641 = conditions: plain residues with an end cap or a label only (N-terminal biotin on a linker: ttds)
Sequence of DVL2, O14641 (O14641 260-359): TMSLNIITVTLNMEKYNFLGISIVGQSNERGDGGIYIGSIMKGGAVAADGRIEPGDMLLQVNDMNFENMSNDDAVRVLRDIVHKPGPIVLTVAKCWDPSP

GIPC3, Q8TF64 = conditions: plain residues with an end cap or a label only (N-terminal biotin on a linker: ttds)
Sequence of GIPC3, Q8TF64 (Q8TF64 107-202): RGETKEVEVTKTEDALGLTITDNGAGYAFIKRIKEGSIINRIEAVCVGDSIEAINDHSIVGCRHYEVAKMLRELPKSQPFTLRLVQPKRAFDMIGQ

GRIP2_2, Q9C0E4 = conditions: plain residues with an end cap or a label only (N-terminal biotin on a linker: ttds)
Sequence of GRIP2_2, Q9C0E4 (Q9C0E4 137-245): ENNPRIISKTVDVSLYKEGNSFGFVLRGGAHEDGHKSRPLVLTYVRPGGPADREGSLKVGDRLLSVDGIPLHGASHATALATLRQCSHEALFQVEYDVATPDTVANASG

LMO7, Q8WWI1 = conditions: plain residues with an end cap or a label only (N-terminal biotin on a linker: ttds)
Sequence of LMO7, Q8WWI1 (Q8WWI1 1037-1138): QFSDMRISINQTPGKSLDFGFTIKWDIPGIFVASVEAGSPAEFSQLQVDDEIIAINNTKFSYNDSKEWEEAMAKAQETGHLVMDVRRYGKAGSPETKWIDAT

MAGI1_3, Q96QZ7 = conditions: plain residues with an end cap or a label only (N-terminal biotin on a linker: ttds)
Sequence of MAGI1_3, Q96QZ7 (Q96QZ7 638-725): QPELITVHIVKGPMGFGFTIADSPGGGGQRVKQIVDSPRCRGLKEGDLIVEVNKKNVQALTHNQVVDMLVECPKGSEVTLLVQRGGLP

MAGI3_4, Q5TCQ9 = conditions: plain residues with an end cap or a label only (N-terminal biotin on a linker: ttds)
Sequence of MAGI3_4, Q5TCQ9 (Q5TCQ9 716-815): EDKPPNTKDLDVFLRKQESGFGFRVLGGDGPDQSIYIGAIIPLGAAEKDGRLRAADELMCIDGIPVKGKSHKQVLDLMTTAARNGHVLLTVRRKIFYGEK

MAGI3_6, Q5TCQ9 = conditions: plain residues with an end cap or a label only (N-terminal biotin on a linker: ttds)
Sequence of MAGI3_6, Q5TCQ9 (Q5TCQ9 1014-1103): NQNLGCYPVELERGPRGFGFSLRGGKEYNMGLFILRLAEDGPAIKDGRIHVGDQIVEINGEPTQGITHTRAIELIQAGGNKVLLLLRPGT

MAST3, O60307 = conditions: plain residues with an end cap or a label only (N-terminal biotin on a linker: ttds)
Sequence of MAST3, O60307 (O60307 945-1048): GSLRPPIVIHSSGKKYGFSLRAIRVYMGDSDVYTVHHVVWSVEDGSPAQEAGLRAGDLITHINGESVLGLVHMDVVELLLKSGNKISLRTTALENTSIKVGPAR

MPDZ_11, O75970 = target: T2, MPDZ_11, O75970; conditions: plain residues with an end cap or a label only (N-terminal biotin on a linker: ttds)
MPDZ_3, O75970 = target: T3, MPDZ_3, O75970; conditions: plain residues with an end cap or a label only (N-terminal biotin on a linker: ttds)
MPP5, Q8N3R9 = target: T4, MPP5, Q8N3R9; conditions: plain residues with an end cap or a label only (N-terminal biotin on a linker: ttds)
PARD3_1, Q8TEW0 = conditions: plain residues with an end cap or a label only (N-terminal biotin on a linker: ttds)
Sequence of PARD3_1, Q8TEW0 (Q8TEW0 264-372): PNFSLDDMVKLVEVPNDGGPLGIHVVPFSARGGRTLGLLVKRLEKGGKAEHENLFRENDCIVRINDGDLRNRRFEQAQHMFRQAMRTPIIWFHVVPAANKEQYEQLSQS

PARD6G, Q9BYG4 = target: T5, PARD6G, Q9BYG4; conditions: plain residues with an end cap or a label only (N-terminal biotin on a linker: ttds)
PDZD2_6, O15018 = target: T6, PDZD2_6, O15018; conditions: plain residues with an end cap or a label only (N-terminal biotin on a linker: ttds)
PDZD7_2, Q9H5P4 = target: T7, PDZD7_2, Q9H5P4; conditions: plain residues with an end cap or a label only (N-terminal biotin on a linker: ttds)
PTPN13_4, Q12923 = target: T8, PTPN13_4, Q12923; conditions: plain residues with an end cap or a label only (N-terminal biotin on a linker: ttds)
PTPN13_5, Q12923 = target: T9, PTPN13_5, Q12923; conditions: plain residues with an end cap or a label only (N-terminal biotin on a linker: ttds)
SCRIB_4, Q14160 = conditions: plain residues with an end cap or a label only (N-terminal biotin on a linker: ttds)
Sequence of SCRIB_4, Q14160 (Q14160 1095-1204): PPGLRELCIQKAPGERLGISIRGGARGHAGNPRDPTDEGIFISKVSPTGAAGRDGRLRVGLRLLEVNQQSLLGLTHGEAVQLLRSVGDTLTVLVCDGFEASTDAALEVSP

SHROOM3, Q8TF72 = target: T10, SHROOM3, Q8TF72; conditions: plain residues with an end cap or a label only (N-terminal biotin on a linker: ttds)
TJP1_1, Q07157 = conditions: plain residues with an end cap or a label only (N-terminal biotin on a linker: ttds)
Sequence of TJP1_1, Q07157 (Q07157 18-120): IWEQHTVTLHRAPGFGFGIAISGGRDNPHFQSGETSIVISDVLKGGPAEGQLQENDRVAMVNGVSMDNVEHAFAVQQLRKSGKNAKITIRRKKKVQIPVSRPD

USH1C_1, Q9Y6N9 = target: T11, USH1C_1, Q9Y6N9; conditions: plain residues with an end cap or a label only (N-terminal biotin on a linker: ttds)
[1] = plain residues with an end cap or a label only (N-terminal biotin on a linker: ttds)

Binder	pKd (APBA3_1, O96018)	pKd (GIPC2, Q8TF65; [1])	pKd (DLG2_1, Q15700)	pKd (DLG5_2, Q8TDM6)	pKd (DVL2, O14641)	pKd (GIPC3, Q8TF64)	pKd (MAGI1_3, Q96QZ7)	pKd (MAGI3_4, Q5TCQ9)	pKd (MAGI3_6, Q5TCQ9)	pKd (MAST3, O60307)	pKd (MPDZ_11, O75970)	pKd (MPDZ_3, O75970)	pKd (MPP5, Q8N3R9)	pKd (PARD3_1, Q8TEW0)	pKd (PARD6G, Q9BYG4)	pKd (PDZD2_6, O15018)	pKd (PDZD7_2, Q9H5P4)	pKd (PTPN13_4, Q12923)	pKd (PTPN13_5, Q12923)	pKd (SCRIB_4, Q14160)	other results
IYVPEAQTRL [DLGAP4, Q9Y2H0]	below the threshold	below the threshold																			
ERKLSSESQV [LRP4, O75096]	below the threshold	4.22																			
RSLEEEESQL [GRASP, Q7Z6J2]	below the threshold	4.17	below the threshold	below the threshold	below the threshold	below the threshold	below the threshold	below the threshold	4.14	below the threshold	below the threshold	below the threshold	below the threshold	below the threshold	below the threshold	below the threshold	below the threshold	below the threshold	below the threshold	below the threshold	pKd (GRIP2_2, Q9C0E4): below the threshold; pKd (LMO7, Q8WWI1): 4.14; pKd (SHROOM3, Q8TF72): below the threshold; pKd (TJP1_1, Q07157): below the threshold; pKd (USH1C_1, Q9Y6N9): below the threshold
SSRTRRETQL [HPV16-E6, P03126]	below the threshold	below the threshold	4.92	4.12	below the threshold	below the threshold	4.16	below the threshold	below the threshold	below the threshold	below the threshold	below the threshold	below the threshold	below the threshold	below the threshold	below the threshold	below the threshold	below the threshold	below the threshold	below the threshold	pKd (GRIP2_2, Q9C0E4): below the threshold; pKd (LMO7, Q8WWI1): 4.15; pKd (SHROOM3, Q8TF72): below the threshold; pKd (TJP1_1, Q07157): 4.22; pKd (USH1C_1, Q9Y6N9): below the threshold
KSRVAFFEEL [NF2, P35240]																					pKd (GIPC2, Q8TF65; plain residues with an end cap or a label only (N-terminal biotin on a linker: ado-ado)): 3.48
SRPQRTQTQV [HPV67-E6, A4U7F2]	below the threshold	below the threshold	4.25	4.16	below the threshold	below the threshold	4.12	below the threshold	below the threshold	below the threshold	below the threshold	below the threshold	below the threshold	below the threshold	below the threshold	below the threshold	below the threshold	below the threshold	below the threshold	below the threshold	pKd (SHROOM3, Q8TF72): below the threshold; pKd (TJP1_1, Q07157): below the threshold; pKd (USH1C_1, Q9Y6N9): below the threshold
IDNDTESTAL [ARHGAP17, Q68EM7]	below the threshold	below the threshold																			
